Source: publication doi:10.1101/2020.12.10.419135

Target: Recombinant human glutamine synthetase (GS) (human) (UniProt P15104)
Experiment: MST

UniProt P15104, sequence (P15104 whole entry): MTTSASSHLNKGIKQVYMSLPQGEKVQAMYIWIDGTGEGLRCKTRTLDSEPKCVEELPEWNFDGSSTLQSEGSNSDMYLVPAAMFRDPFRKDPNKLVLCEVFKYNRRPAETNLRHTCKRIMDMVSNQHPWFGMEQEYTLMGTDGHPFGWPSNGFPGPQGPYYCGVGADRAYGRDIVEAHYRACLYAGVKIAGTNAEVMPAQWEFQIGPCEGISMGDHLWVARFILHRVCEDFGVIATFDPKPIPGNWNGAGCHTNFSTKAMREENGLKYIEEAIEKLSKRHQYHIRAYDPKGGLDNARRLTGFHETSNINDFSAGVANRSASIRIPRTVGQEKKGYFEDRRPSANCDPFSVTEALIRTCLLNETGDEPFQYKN

## contryphan-Bt (peptide)
  Kd: 74 µM
